Three molecules from PMC11676163, “Comparison of Two Chelator Scaffolds as Basis for Cholecystokinin-2 Receptor Targeting Bimodal Imaging Probes” (Pharmaceuticals, 2024) can be followed below.

Each structure is given as a SMILES string. Values joined by “and” are separate entries in the source; they are usually repeats but may differ in a detail not shown here. Equal entries are not always repeated.

In data set [1] the target is T1, CCK2 receptor (Homo sapiens, UniProt P32239).
T1 construct: expressed in transfected cells; host or cells: A431 human squamous carcinoma cells (A431-CCK2R), provided by Dr. Luigi Aloj
T1 sequence (P32239 1-447): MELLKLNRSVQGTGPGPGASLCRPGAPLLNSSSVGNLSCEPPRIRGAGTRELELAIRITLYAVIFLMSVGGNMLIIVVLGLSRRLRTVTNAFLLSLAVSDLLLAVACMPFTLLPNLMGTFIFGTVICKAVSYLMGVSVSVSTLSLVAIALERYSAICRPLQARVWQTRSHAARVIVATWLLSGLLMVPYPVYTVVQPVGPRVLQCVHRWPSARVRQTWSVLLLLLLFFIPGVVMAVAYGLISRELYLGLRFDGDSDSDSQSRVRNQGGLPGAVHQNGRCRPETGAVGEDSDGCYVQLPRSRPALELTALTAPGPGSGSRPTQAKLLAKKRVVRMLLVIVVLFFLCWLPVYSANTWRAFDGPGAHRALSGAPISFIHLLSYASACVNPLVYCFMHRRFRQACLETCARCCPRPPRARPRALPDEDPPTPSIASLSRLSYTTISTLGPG
The experiment in a line: Receptor-binding affinity, competition against [^177Lu]Lu-DOTA-MGS5 on A431-CCK2R cells. To be noted: metal-free compounds, vs [^177Lu]Lu-DOTA-MGS5, 1 h RT.
Method: A total of 5 µg of DOTA-MGS5 were radiolabelled with 20 µL of [^177Lu]LuCl3 solution (300–400 MBq; 90–95 GBq/µmol) and 30 µL of 0.4 M sodium acetate/0.24 M gentisic acid solution with pH 5. The labelling mixture was heated at 90 °C for 20 min. At the end, the solution was diluted to a concentration of 200 nM and stored in a freezer for further use. Binding assays were carried out in 96-well filter plates (Multi-ScreenHTS-FB, Merck Group, Darmstadt, Germany) pretreated with 10 mM TRIS/139 mM NaCl buffer at pH 7.4 (TRIS-buffer) (2 × 250 μL) before 400,000 A431-CCK2R cells per well were added in 20 mM HEPES buffer at pH 7.4 containing 10 mM MgCl2, 14 μM bacitracin, and 0.5% (w/v) bovine serum albumin (BSA) (binding assay buffer). Competition assays were performed two times in triplicate using increasing concentrations of competitors (0.001–1,000 nM) and a constant amount of radioligands (~30,000 cpm, 0.3 nM). After 1 h of incubation at room temperature (RT), the medium was removed by vacuum filtration and the filters were rapidly rinsed with ice-cold binding assay buffer (2 × 200 μL), removed, and counted in the γ-counter. Half-maximal inhibitory concentration (IC50) values were calculated following non-linear regression with Origin software (MicroCal Origin 6.1, Northampton, MA, USA).

The test system of data set [2] is A431-CCK2R cells. The experiment in a line: Cell uptake studies on A431-CCK2R cells. The note with it: 0.5 nM, 1 h, 37 °C. It counts as cell-based, human. From the text: (§1) The human squamous carcinoma cell line A431 transfected with human CCK2R (A431-CCK2R) and with the empty vector alone (A431-mock) were originally provided by Dr. Luigi Aloj (Nuclear Medicine Unit, Istituto Nazionale per lo Studio e la Cura dei Tumori “Fondazione Giovanni Pascale”-IRCCS, Naples, Italy). All cell culture media and reagents were purchased from Gibco, Invitrogen (Thermo Fisher Scientific, Vienna, Austria), or Sigma-Aldrich (Darmstadt, Germany) Corporation. Dulbecco's Modified Eagle's medium (DMEM) supplemented with 10% (v/v) fetal bovine serum, FBS (10270, Invitrogen, Thermo Fisher Scientific, Waltham, MA, USA), and 1% (v/v) penicillin-streptomycin-glutamine, PSG (10378, Gibco, Thermo Fisher Scientific, Waltham, MA, USA), was used for cell culture. The cells were grown at 37 °C in a humidified atmosphere with 5% carbon dioxide and were passaged 3 times per week using a 2.5% trypsin-EDTA solution. The cell internalization of the radiolabelled compounds was measured on A431-CCK2R and A431-mock cells. A total of 1.0 × 10^6 cells per well were seeded in 6-well culture plates (Greiner Cellstar, Sigma-Aldrich […] GmbH, Vienna, Austria) and grown for 48 h. On the day of the experiment, each well was washed twice with internalization medium (culturing medium supplemented with 1% (v/v) FBS) and then incubated with 0.5 nM of a radioactive compound for 1 h at 37 °C. After the incubation, the medium was removed and the cells rinsed with 2 × 1 mL of PBS/0.5% (w/v) bovine serum albumin (BSA). Thereafter, they were washed twice with 1 mL of 50 mM glycine buffer (pH 2.8) with 0.1 M NaCl to remove the membrane-bound radiocompound. Finally, the cells were lysed with 2 × 1 mL of 1 M NaOH to determine the internalized radioligand. All fractions were measured in the γ-counter and the percentage of internalized and membrane-bound radiocompounds in relation to the total radioactivity added to the cells was reported.

Data set [3] is described as follows: physchem. It counts as physicochemical. To be noted: buffer or solvent, pH 7.4. As for the experimental part: For stability and protein binding studies, the labelling solutions were diluted with PBS or human serum to a concentration of 0.5 µM and incubated at 37 °C for 1 h, 2 h, and 4 h (n = 3). In the case of serum stability for each timepoint, 100 uL of the incubated solution was diluted 1:1 with ACN to make the proteins precipitate and the solution was centrifuged for 2 min at 14,000× g rpm. A total of 100 uL of the supernatant was then diluted 1:1 with water and analyzed by radio-HPLC. For stability in PBS, 100 uL of the incubated solution was diluted 1:1 with water and analyzed by radio-HPLC for every timepoint.

A short description of data set [4]: Distribution coefficient (LogD pH7.4), octan-1-ol/PBS. To be noted: octan-1-ol/PBS pH 7.4, n = 6. It counts as physicochemical. On the procedure: For lipophilicity determination, [^68Ga]Ga-CyTMG and [^68Ga]Ga-CyFMG labelling solutions were diluted with phosphate-buffered saline (PBS, pH7.4) to a concentration of 0.1 µM. A total of 300 µL of this solution was added to an Eppendorf tube containing 300 µL of octan-1-ol. The mixture was shaken at 1400 rpm and at RT for 15 min and centrifuged at 4500× g rpm for 2 min for phase separation. Afterwards, 100 µL of the organic phase and of the aqueous phase were taken out and the activities of the aliquots were quantified in a γ-counter (n = 6). The LogD values were calculated with the following formula:(1) LogDpH7.4=log10  CPMoctanol phase/CPM PBS phase

The nature of data set [5]: in vivo. The note with it: athymic BALB/c nude, mouse, total radioactivity. On the procedure:
(§2) For the induction of tumour xenografts, 2 × 10^6 of A431-CCK2R or A431-mock cells in 200 μL appropriate medium and Matrigel (1:1) were subcutaneously injected in the right and left flank of each mouse (athymic BALB/c nude), respectively. The tumours were allowed to grow until they had reached a volume of 0.3 to 0.6 cm^3. To evaluate ex vivo biodistribution on tumour models, 3 mouse xenografts were injected with 0.05 nmol of radiotracer (1 MBq) and then sacrificed after 2 h. For the comparative imaging study (PET/CT and in vivo fluorescence imaging), 2 xenograft-bearing mice were injected with 0.3 nmol (6 MBq) of radiotracer. Static PET/CT images of the anesthetized animals in prone position were acquired with a Mediso NanoScan PET/CT small-animal imaging system (Mediso Medical Imaging Systems, Budapest, Hungary) at 1, 2, and 3 h p.i. Image reconstruction was performed via Mediso Tera-Tomo 3D PET iterative reconstruction (Mediso Medical Imaging Systems, Budapest, Hungary). The images were visualized, processed, and quantified in Mediso InterView FUSION (Mediso Medical Imaging Systems, Budapest, Hungary). Quantitative analyses were performed on images of 3 mouse xenografts per compound. The images were normalized to injected activity and animal weight. The results were expressed as percentages of injected dose per gram tissue (% ID/g).

Data set [6] relates to A431-CCK2R / A431-mock xenografts. The experiment in a line: in vivo. To be noted: mouse. On the procedure:
as §2

For data set [7], the system named is A431-mock cells. In words: Cell uptake studies on A431-mock cells. The class given is cell-based, human. The note with it: 0.5 nM, 1 h, 37 °C.
Text: as §1

Data set [8] in a line: in vivo. To be noted: BALB/c, mouse, total radioactivity. On the procedure: For the ex vivo biodistribution study on healthy BALB/c mice, 3 animals per group were injected with 0.14 nmol of radiotracer (1.5 MBq) and then sacrificed after 1, 2, and 4 h. The organs of interest were extracted, weighed, and measured in the γ-counter. Results were expressed as percentages of injected dose per gram tissue (% ID/g).

The subject of data set [9] is A431-CCK2R / A431-mock xenografts. It counts as in vivo, mouse. To be noted: for Time after injection from which cancerous tissue could be well delineated by fluorescence imaging: A431-CCK2R xenografts, 0.3 nmol; for Persistence of fluorescence signal in the kidneys: mouse, in vivo. On the procedure: as §2
Near-infrared in vivo fluorescence imaging was conducted with an in vivo MS FX PRO small-animal imaging system (Bruker Biospin Corporation, Woodbridge, CT, USA) and image analysis was performed with Bruker MI SE software v. 7.1.1.20220 (Bruker Biospin Corporation, Woodbridge, CT, USA). The mice were positioned in the system in supine position and scanned at various time intervals up to 72 h p.i. by using an appropriate filter set (excitation = 650 nm and emission = 700 nm) and identical illumination settings (acquisition time = 30 s, f-stop = 2.8, field of view = 100 mm, and binning = 4 × 4). The fluorescence emission was reported as photons/s/mm^2.

[10] abbreviates: Accumulation of radioactivity in A431-CCK2R xenografts.
[11] abbreviates: Accumulation of radioactivity in A431-mock tumours.

Broadly, the IC50 is the concentration that inhibits the measured activity by half. In [1], `CCCC[C@@H](C(=O)N[C@@H](CC(=O)O)C(=O)N[C@@H](Cc1cccc2ccccc12)C(N)=O)N(C)C(=O)[C@H](Cc1c[nH]c2ccccc12)NC(=O)CCOCCOCCOCCOCCn1cc(CNC(=O)CCP(=O)(O)CN2CCN(CP(=O)(O)CCC(=O)NCc3cn(CCCNC(=O)CCCCC[N+]4=C(C=CC=CC=C5N(C)c6ccc7c(S(=O)(=O)O)cc(S(=O)(=O)O)cc7c6C5(C)C)C(C)(C)c5c4ccc4c(S(=O)(=O)O)cc(S(=O)(=O)O)cc54)nn3)CCN(CP(=O)(O)CCC(=O)NCc3cn(CCOCCOCCOCCOCCC(=O)N[C@@H](Cc4c[nH]c5ccccc45)C(=O)N(C)[C@@H](CCCC)C(=O)N[C@@H](CC(=O)O)C(=O)N[C@@H](Cc4cccc5ccccc45)C(N)=O)nn3)CC2)nn1` (single isomer, unassigned) [CyTMG] showed an IC50 of 0.24 ± 0.16 nM.

Usually fraction remaining stands for what is left of the initial amount, in per cent. High values mean less turnover, low ones more turnover. Usually tissue uptake stands for the percentage of the injected dose found per gram of tissue. On to `CCCC[C@@H](C(=O)N[C@@H](CC(=O)O)C(=O)N[C@@H](Cc1cccc2ccccc12)C(N)=O)N(C)C(=O)[C@H](Cc1c[nH]c2ccccc12)NC(=O)CCOCCOCCOCCOCCn1cc(CNC(=O)CCP(=O)(O)CN2CCN(CP(=O)(O)CCC(=O)NCc3cn(CCCNC(=O)CCCCC[N+]4=C(C=CC=CC=C5N(C)c6ccc7c(S(=O)(=O)O)cc(S(=O)(=O)O)cc7c6C5(C)C)C(C)(C)c5c4ccc4c(S(=O)(=O)O)cc(S(=O)(=O)O)cc54)nn3)CCN(CP(=O)(O)CCC(=O)NCc3cn(CCOCCOCCOCCOCCC(=O)N[C@@H](Cc4c[nH]c5ccccc45)C(=O)N(C)[C@@H](CCCC)C(=O)N[C@@H](CC(=O)O)C(=O)N[C@@H](Cc4cccc5ccccc45)C(N)=O)nn3)CC2)nn1` (single isomer, unassigned) [[^68Ga]Ga-CyTMG, metal not drawn], for which, in data set [2], the “Internalized fraction, % of total activity” value (shortened to “Internalized fraction, %”) is 10.59 ± 0.40% and 10.6%; the “Membrane bound, % of total activity” value is listed as 0.8%. In data set [3], this molecule came in with a fraction remaining at 1 h, 0.5 µM of 97.98 ± 0.2%; a share remaining at 2 h, 0.5 µM of 97.56 ± 0.09%; an amount remaining at 4 h, 0.5 µM of 96.7 ± 1.15%. Moreover, the “LogDpH7.4 ± SD” value in data set [4] is −1.78 ± 0.16. Further, the tissue uptake at 2 h in data set [5] (0.05 nmol, Kidney uptake) stood at 119 ± 9.12 %ID/g. The tissue uptake at 2 h in [5] (setting [10]) was determined as 6.47 ± 1.47 %ID/g. Besides, the tissue uptake at 2 h in [5] (setting [11]) was found to be 2.46 ± 0.4 %ID/g. Besides, in data set [6], the “Ratio of CCK2R-positive tumours and A431-mock xenografts” value was determined as 2.63. Also, in data set [7], the “Internalized fraction, %” value was 0.2% and the “Membrane bound, % of total activity” value is reported as 0.5%. In data set [8], the tissue uptake at 1 h was found to be 75.8 ± 3.88 %ID/g, the tissue uptake at 2 h stood at 124 ± 6.46 %ID/g and the tissue uptake at 4 h turned out to be 173 ± 13 %ID/g. Also, in data set [9], the “Time after injection from which cancerous tissue could be well delineated by fluorescence imaging” value is ≥ 1 h and the “Persistence of fluorescence signal in the kidneys” value is given as “up to 72 h”.

Turning to `CCCC[C@@H](C(=O)N[C@@H](CC(=O)O)C(=O)N[C@@H](Cc1cccc2ccccc12)C(N)=O)N(C)C(=O)[C@H](Cc1c[nH]c2ccccc12)NC(=O)CCOCCOCCOCCOCCn1cc(CCC(=O)N[C@H]2CCCN(O)C(=O)/C=C(/C)CCOC(=O)[C@@H](NC(=O)CCc3cn(CCOCCOCCOCCOCCC(=O)N[C@@H](Cc4c[nH]c5ccccc45)C(=O)N(C)[C@@H](CCCC)C(=O)N[C@@H](CC(=O)O)C(=O)N[C@@H](Cc4cccc5ccccc45)C(N)=O)nn3)CCCN(O)C(=O)/C=C(/C)CCOC(=O)[C@@H](NC(=O)CCc3cn(CCCNC(=O)CCCCC[N+]4=C(/C=C/C=C/C=C5/N(C)c6ccc7c(S(=O)(=O)O)cc(S(=O)(=O)[O-])cc7c6C5(C)C)C(C)(C)c5c4ccc4c(S(=O)(=O)O)cc(S(=O)(=O)O)cc54)nn3)CCCN(O)C(=O)/C=C(/C)CCOC2=O)nn1` [[^68Ga]Ga-CyFMG, metal not drawn], in data set [2], the “Internalized fraction, %” value is 24.48 ± 1.33% and 24.5%; the “Membrane bound, % of total activity” value worked out at 0.9%. Also, in data set [3], the fraction remaining at 1 h, 0.5 µM came to 99.1 ± 1.07%; the fraction remaining at 2 h, 0.5 µM came to 98.57 ± 0.47%; the fraction remaining at 4 h, 0.5 µM was determined as 99.3 ± 0.71%. For the same molecule, the “LogDpH7.4 ± SD” value in data set [4] is given as −1.53 ± 0.10. For the same molecule, the tissue uptake at 2 h in data set [5] (0.05 nmol, Kidney uptake) was 50.7 ± 8.42 %ID/g. Besides, the tissue uptake at 2 h in [5] (setting [10]) worked out at 4.02 ± 1.64 %ID/g. For the same molecule, the tissue uptake at 2 h in [5] (setting [11]) was found to be 1.02 ± 0.13 %ID/g. Further, the “Ratio of CCK2R-positive tumours and A431-mock xenografts” value in data set [6] worked out at 3.94. In data set [7], the “Internalized fraction, %” value is 1.3% and the “Membrane bound, % of total activity” value was 0.7%. For the same molecule, in [8], the tissue uptake at 1 h was found to be 45.9 ± 3.03 %ID/g, the tissue uptake at 2 h was 59.3 ± 5.04 %ID/g and the tissue uptake at 4 h is 74.3 ± 11.7 %ID/g. Further, in [9], the “Time after injection from which cancerous tissue could be well delineated by fluorescence imaging” value was ≥ 3 h and the “Persistence of fluorescence signal in the kidneys” value is listed as “visibly declined from 24 h to disappear completely at 72 h after injection”.
